Experimental findings from the supplement of paper PMC12764529 are described below.

Data set [1] can be described thus: folding stability dG unfold from trypsin proteolysis; higher = more stable. In short, it runs like this:
(§1)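 Only designs with AlphaFold2 dimer inter-PAE above 15 were retained; each was a mini-protein under 80 residues with no cysteine, in a PA-tagged cDNA display construct. After digestion with trypsin and chymotrypsin and sequencing, K50 was inferred by Bayesian fitting of counts, and unfolding free energy was derived per protease or combined against a sequence-predicted unfolded-state K50 and a shared folded-state K50.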

A short description of data set [2]: folding stability dG unfold (combined trypsin and chymotrypsin); higher = more stable. In a few lines: as §1
The nature of data set [3]: folding stability dG unfold from chymotrypsin proteolysis; higher = more stable. In a few lines:
as §1

± gives the half width of the 95% confidence interval.

In the case of “SAKKIILIKAESEEELKKAIEEAKKLAEEGKKVEIIIETPKGLILIEIDVKTKKIKIKNLETGEEIELESAG [r14_423_TrROS_Hall]”, the “folding stability dG unfold” value worked out at 1.49 ± 0.1 kcal/mol in data set [1], 1.19 ± 0.23 kcal/mol in data set [2] and 0.375 ± 0.1 kcal/mol in data set [3].
With “SAKKIPLDDAKIRIKMESPNGMIMEFPIKNVQIDPKNGKLSFEFPMRIYNPDNGKERPMRMKIDEIVPVSAG [r14_825_TrROS]”, the “folding stability dG unfold” value came out at 0.107 ± 0.37 kcal/mol in data set [1], 0.22 ± 0.19 kcal/mol in data set [2] and 0.299 ± 0.25 kcal/mol in data set [3].
Regarding “SAKKITLTPPNGKKITITVHPDGSITITYEKGKITLPGHPGAKIKKATVDPKKGYITIIVNDKPIVIPISAG [r14_276_TrMRF]”, the figures for the “folding stability dG unfold” value in data set [1], in data set [2] and in data set [3] were 1.66 ± 0.044 kcal/mol, 2.39 ± 0.12 kcal/mol and 2.83 ± 0.071 kcal/mol, respectively.
The matching figures for “SAKKKFKVKEVKVTKHKGKFKIGDKEIEKELYTVNVVIEDENGNKYPFTFTFEKPEELKKFVEKLEEEKSAG [r14_36_TrMRF]”: 3.03 ± 0.17 kcal/mol, 3.61 ± 0.2 kcal/mol and 4.075 ± 0.028 kcal/mol.
The matching figures for “SAKKKITVKIKIEYDKETGTLKVEVEITYPDGKKVKVEAEIDLKTGKITIKVYDKNGKLIAEIEIELPPSAG [r14_524_TrROS_Hall]”: 2.68 ± 0.25 kcal/mol, 2.61 ± 0.36 kcal/mol and 2.35 ± 0.092 kcal/mol.
The matching figures for “SAKKKVIEVELPPDAKVVTIKLEGKGVEITFVEVDGKLVITVRYKDDPSKTVTIVVKTKEEADALLKALSAG [r14_716_TrROS_Hall]”: 1.23 ± 0.082 kcal/mol, 1.66 ± 0.27 kcal/mol and 1.85 ± 0.068 kcal/mol.
“SAKKLIIKVEVETFDEETGELKTEERTIEADTLEDALAEIERELPPGARVRIEVFDADGKLVETIEIELSAG [r14_234_TrROS_Hall]”: the “folding stability dG unfold” value in data set [1] is 4.41 ± 0.23 kcal/mol; in data set [2], 3.92 ± 0.15 kcal/mol; in data set [3], 3.1 ± 0.091 kcal/mol.
The matching figures for “SAKKTIVVPVEKLKELLDALKEAGYEVKVEYNKENPVVTVTITVKDKNGKELKIELVVDKKTGLVTIKLSAG [r14_169_TrROS_Hall]”: 1.97 ± 0.077 kcal/mol, 2.26 ± 0.13 kcal/mol and 2.45 ± 0.051 kcal/mol.
With “SAKLAKELAEELAKEILPKFPNIKAVKVEVEPLGDYAIATIIWEKENGKPIISKAIIEKNKKILKVDISSAG [r14_719_TrMRF]”, the “folding stability dG unfold” value in data set [1] came out at 1.02 ± 0.047 kcal/mol; in data set [2], 1.19 ± 0.19 kcal/mol; in data set [3], 1.26 ± 0.043 kcal/mol.
The matching figures for “SAKLIRDLLRDHGFPIKNIDVQKNPNGKTYISIEIKMYTPEYKNDEGRPKPRPVEMTATFPADDLLDALSAG [r14_16_TrROS]”: 0.91 ± 0.16 kcal/mol, 0.676 ± 0.25 kcal/mol and 0.507 ± 0.25 kcal/mol.
The matching figures for “SAKLPEGAVVVIEDIEEKEVNGKKYKTIKISVYDKKNKGKLIAETEIVVENGKIVEKKVKVKKVSKEELSAG [r14_651_TrROS_Hall]”: 0.887 ± 0.027 kcal/mol, 1.61 ± 0.14 kcal/mol and 2.05 ± 0.14 kcal/mol.
Take “SAKLTLEIEVNGKKYKAEITSVDEETGTVTIKVTFPDGSTQTLTLTFPPAPPPKVEKVYVVDKDGKLLKSAG [r14_466_TrROS_Hall]”: the “folding stability dG unfold” value in data set [1] was 0.644 ± 0.025 kcal/mol; in data set [2], 1.45 ± 0.12 kcal/mol; in data set [3] it was 1.83 ± 0.089 kcal/mol.
The matching figures for “SAKMSPEMRELVERLQDLYNENGYKVKIEMSNKPGMIRINVQMPNPRKKRKIKEALRGDGFPITRVEIYSAG [r14_284_TrROS]”: 1.62 ± 0.077 kcal/mol, 1.36 ± 0.23 kcal/mol and 0.929 ± 0.25 kcal/mol.
The matching figures for “SAKMYLVIIEIKKDGKTYKLIIIIPEEDENLTEEEILEKIRELAEKLNLEIEKIEVIPLEEAKKLLEELSAG [r14_953_TrROS_Hall]”: 3.66 ± 0.074 kcal/mol, 5.23 ± 0.13 kcal/mol and 5.25 ± 0.13 kcal/mol.
The matching figures for “SAKNIAIKVSIWPFDPEDGEPQTFEITYPFPDPEDAIDEIEEFLPPGYRVKIEVFDPDGKPLKEIEIRISAG [r14_234_TrROS]”: 1.93 ± 0.1 kcal/mol, 2.09 ± 0.19 kcal/mol and 2.28 ± 0.048 kcal/mol.
In the case of “SAKPIPLKNVTINMYKDEKGNYYFKVTLNDKFIGEFEFETTEEALEGAIELAKEIEKIYGPNNIKIKNESAG [r14_791_TrMRF]”, the “folding stability dG unfold” value in data set [1] turned out to be 2.33 ± 0.2 kcal/mol; in data set [2], 2.64 ± 0.31 kcal/mol; in data set [3], 2.7 ± 0.067 kcal/mol.
The matching figures for “SAKTIKIEIEVKPEKLEEVLEEIAKALAEKLGLPEDVKEIKIEVTKIEVEKVKVDGKEYVKVKIEIKVESAG [r14_736_TrROS_Hall]”: 3.04 ± 0.19 kcal/mol, 3.59 ± 0.32 kcal/mol and 3.97 ± 0.28 kcal/mol.
On to “SAKVITIKLKIKVKTEEELEKAKELADELAKKLAEEGKKVKVEVVKIEVEENENGEKTVTIEIKIYLEPSAG [r14_48_TrROS_Hall]”, for which the “folding stability dG unfold” value in data set [1] amounted to 3.36 ± 0.22 kcal/mol; in data set [2], 3.6 ± 0.35 kcal/mol; in data set [3], 3.72 ± 0.21 kcal/mol.
